Data taken from a protein production outcome set (Wang et al. 2014).

Test: label from the status in PepcDB records
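Further: failed if final PepcDB status was selected cloned or expressed and not failed if soluble or beyond.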

In the case of “MAQQQGMDSALFERRLRPVYDNLEVGNNRKALQESEKLLRKHPNLLCARALKGLSLLRLGRYDESHGCLQTVAEEKPTDDSTLQVLSFCYREMEQLDKIVELYQHAVKQNPGNEELLAHLFISHVRVEDYKAQQAVALQLYKAQPKNAYYFWSVISVVFQGIRGPESALPEKRKIYLGLAQRMVDKHIKEGKMETEQEAFLYLHILKLQNKYQEAWEFLTGELCAKLYPGAPVSMKFELLKELGNWRELNELLQQLLDADRDRWDFYKEYIQSSFELLKLTPQGVENGDKDSLARCQEFLQRIIDSSERKKRGPYLARLELHQRMRAEQLPAEKLIGDFDEMVIEYFRLFGDKSCCTHDIALFLPSISMNQRQALASKLLLESGVTSTSLPKNKEQLQKHLCALQISRMCGSHMDLPADHLLAFYTALKLHYEHGRTTFGKKLLATEMGPSDAYALLAANVMYDLSRRENKSDHLFEALCLLQYVLRNSTSNFHVKLLSLKIYHLFGCQVGAQEMYEYLDIKQIQLDSMGYVHCQLLALGGRFSGNRNVYDATLKFFTNSYKERLEYIALTYRFCTFSKMEEFMNFKERLTNSLQYVACSVEAQICDLVSCYGNITQNLSAYVAMSIEPAEDRIAWHELSDNRDLGAIIRWDPLHEVDAAEERRESFDQEVEVLQVRSLMLRLFASFIDLYHGAGLKDSPAGAETATLELLRESWTGLFQRLRVMNYKPLAQKFLVNLLPTRLHLLLDMPYERFFDDLAQLVLDLQSGSAKLAEQCKRVGDNVIATMELCVQTINESNESNGIDGLWKRRGQQQKVAASLEMLSLYAFLLSVLNDKLQVSSKTKTKKKPVENKVDGPQPISEKERSQMLQELMRQLKHKFEACDTAIRSWKAPVLPRDLSSFMSDMSLKPEVEATLIGDVSATFKDSHELMVTELRNLLKDKIRMVAK”, the protein production is reported as “failed”.

With “MEERNEQVVEEVKEEVKEAQVEEAVTSEDSEESVEEKSEAALLQEKVDELQAKLTETEGRMLRLQADFENYKRRVQMDKQAAEKYRAQSLVSDILPALDNFERAMQVEANDEQMKSLLQGMEMVYRQLLEAMTKEGVEAIEAVGKQFDPHEHQAVMQVEDSEFESNAVVEEFQKGYKLKDRVIRPSMVKVNQ” the protein production was “failed”.

In the case of “DETQVLATVTQELANLFQLESCYIELYNTDCTAVSVVCEYAANQPTYQGLTRQIADFSEIYQPLLQKQHFQTIEIVPGWHPQLLVITQLACPIFDAQGMLGNLWLIRPIQQMLSQSEICLVQTLANLCAIAIRQAKLDATNQARLKKLEQRESLTNKFLRKLSQELRTPITSISLAAQTLETVLSPTI”, the protein production is reported as “failed”.

In the case of “MEHREKCTRCGQCLEVCSRYEDLGVLDRLYGYLDGSSNIDSESLLRCLTCGLCISACPENLGIKPLISPSRQKWINENGLSERLEHHHHHH”, the protein production is reported as “failed”.

For “MKLGFIGFGEAASAIASGLRQAGAIDMAAYDAASAESWRPRAEELGVSCKASVAEVAGECDVIFSLVTAQAALEVAQQAGPHLCEGALYADFTSCSPAVKRAIGDVISRHRPSAQYAAVAVMSAVKPHGHRVPLVVDGDGARRFQAAFTLYGCRIEVLDGEVGGAALLKMCRSAVLKGLEALFLEALAAAEKMGLADRVLASLDASFPEHHLRDLALYLVERNLEHADRRAHELGEVAATLCSVGVEPLVAEAGYRRLTRVAQVRAALKQRPGDVRAWLRSLANAEDA”, the protein production was “not failed”.

In the case of “AEIYNKDGNKVDLYGKAVGLHYFSKGNGENSYGGNGDMTYARLGFKGETQINSDLTGYGQWEYNFQGNNSEGADAQTGNKTRLAFAGLKYADVGSFDYGRNYGVVYDALGYTDMLPEFGGDTAYSDDFFVGRVGGVATYRNSNFFGLVDGLNFAVQYLGKNERDTARRSNGDGVGGSISYEYEGFGIVGAYGAADRTNLQEAQPLGNGKKAEQWATGLKYDANNIYLAANYGETRNATPITNKFTNTSGFANKTQDVLLVAQYQFDFGLRPSIAYTKSKAKDVEGIGDVDLVNYFEVGATYYFNKNMSTYVDYIINQIDSDNKLGVGSDDTVAVGIVYQF”, the protein production is reported as “not failed”.

With “NILFGISDTQECYNAIKFAVKLAHSLKEVRFTLLHVSMEVFIYSESGMMDYGQTEALEEEKAKALLKQFEDAFKKENIECESVLKSGDLIDVVLDMAKDYDLLLIGASESNLLYRLFISHQNSLVEQSSIPVVIAK” the protein production was “failed”.

With “MSSPNPEDVPRRPEPEPSSSNKKKKKRKWLRQEASIQALTRAGHGALQAGQNHEALNNFQRAFLLASKAPQTRDTPVLQACAFNLGAAYVETGDPARGLELLLRAHPEEKAQGRRHGDQCFNVALAYHALGELPQALAWYHRALGHYQPQGDQGEAWAKMGACYQALGQPELAAHCLQEASQAYAQERQLRAAALALGAAAGCMLKSGRHRVGEVVQVLEKSRRLAERSTERRLLGHLYNDLGLGYSQLQLFPLAVEAFLQALPLCWVPGEQATVLRNLGMAHNALGNYQEAREFHQKAADLHGSVGQRWEQGRSFGSLAFALSQLGDHKAARDNYLHALQAARDSGDMKGQWQACEGLGAAAARLGQYDQALKYYKEALAQCQKEPDSVRERLVAKLADTVRTRLAQVGLVQTHTLTSAPGRLQAPGGASQAEGTPAKAGSSTAGVQHRSSSGWEDEEFEEGHQKKKEERSANVPVRAGPGRPELCFLPGTVNHSHHLASSCPTFTKHTPCRGTVLGKASIYSPGPRAHLPFVGPGPPRAEYPSILVPNGPQANRSSRWPRESLSRSRQRRPMESGICTIV” the protein production was “failed”.

For “MSPGGLCDAPHMAVAPRVKPLDLFTPEEWTRISARSSWRGIWMVAHAWGVILAAGALFVAFPNPLTYVLAVMLIGARQLGLAILMHEAAHGGLHPKLKVNDWLGEWLCAAPVGASLASYRPYHLSHHKYAQQAEDPDLVLSAPFPTTRRSLRRKMIRDLTGQTFFKQRFGPLLGKMKGAKTTGQPKGAIFAGEIARQRPFLLWNLGILVVLSALGLWWAWPALWIVPMATWFPLVTRLRNIAEHALVAKDEPDPFRHARTTNANWIERALIAPYYVNFHAEHHMFMHTPCWNLPLAHRVLEKKGLTQGMLTAPGYLSVLKAASSKPVAA”, the protein production was “failed”.

In the case of “MRLMIIFDLPVETSEERKEYRKFRKNLINEGFIMIQYSVYVRVCVNKKSAEFTEKRIESFLPSKGVVQSLILTEKQYNDMHFLLGKKIKEVRNSAERTIIL”, the protein production is reported as “failed”.

In the case of “MDKNIFNILKKYFGYSSFRRGQENIIQSILDGNDTFAIMPTGGGKSICYQVPALYMKGLTIVITPLISLMKDQVDTLRENGVNASYINSTLSSKETNDILMSALSGHLKILYVAPERLEQDYFRNAIKDLTISMVAIDEAHCVSQWGHDFRVSYKRIVPFINIFDKRPIVAAFTATATDEVKKDIINLLELKEPNCFITGFDRDNLFFSIVKNENKFDFITKYLSKHKELSGIIYAATRKEVDSLHQKLISQGYSVGKYHAGMGDKERSESQDLFLYDETKLMIATNAFGMGIDKSNVRFVIHYNMPKNLESYYQEAGRAGRDGEKSECIILFSGQDIQIQKFLIKQSIPSFDRQRIELKKLNDMINYCMTTSCLRKYILNYFGENYEVENCDNCINCTGNVEIVDITLEAQKIISCIYRMGQNFGVTMIAEVLKGSKNSKVLRFNFDKLSTYGIMKDCTLKQITNLINTLIADGYLYLSDSEYATVKMSQKSIEVLKGYKKVVQKIHIVEELSLSTDNTLFEILKALRLEIARRENVPPYIIFSDSVLSEMCKYYPKDKNSMLQIKGVGEIKYNKYGEIFEEKIREYIKETNLTPEDNNKGTLKVPELLSKKIPTHIETFNLYKKGITIADMAKIRNLSIPTIQEHILKCANEGLNVNLDAYIPAEYKDLIYEKIRILGTSKLRPIKDALPDDVDYMAIKAAICKYTSKNKAI”, the protein production is reported as “failed”.

With “MMKLKKVLVLGGTRFFGKHLVEALLKDGHDVTIATRGITEDSFGSRVKRLIVDREDEKQLAERLEDKSYDIVYDNLCYSSNAATIICEVLRGKTRKYVMTSSMAVYDPAINLSEEDFNPYEYTIAYGGRNDFNYGEGKRVAEAVVFQQATFPVVAVRFPVVIGENDYTKRLQFYVEHIVREEPVAVNHLDGELSFIHEEEAGGFLAWCGMEDIEGPINACSNGVVSSREIIHFIEENTGIKPLVQEVGDHVAPYNEVTNCTLHNGKANELGFPFRELKIEIEKVLRYYIHATK” the protein production was “failed”.

With “MAAKSLVDIAYESDSSSDSSDEGDVPCLPKDEVNERKLQNLQRKAFYNLLQTFAFENSTMSNKRTEIIGKLMNEWGIANETHISFADQIQKKLLTLKQTKHSGVKETQIPATPLTNTATPSTFFVPKPVKSWGSVNPESLIGKWVSIRLPDKAKFTEYIIKAYDAEKEMHSLLTETSNPMEVDCIDPFRWIDIRDISPNDIMWEGGQKPNFAAPNQSAAATGQ” the protein production was “failed”.

In the case of “MKGRIELGDVTPHNIKQLKRLNQVIFPVSYNDKFYKDVLEVGELAKLAYFNDIAVGAVCCRVDHSQNQKRLYIMTLGCLAPYRRLGIGTKMLNHVLNICEKDGTFDNIYLHVQISNESAIDFYQKFGFEIIETKKNYYKRIEPADAHVLQKSLRSPCAPPAGELQKAD”, the protein production is reported as “failed”.

With “DVKEFCKKSLRVRKRQLKDLLYSLEDDNKELFERVIKLFENFKNRDEIFYEKISEEIVWTVKKNILFVNIEEGILKPQSKLDLLAIREILDEIKT” the protein production was “failed”.

For “MPIVARSSRVPWVIKYRPKRVEDVVNQDQAKKILVPWFKAWLEGRKPDKRAALLYGPPGVGKTSLVEAIASEFNLEMIELNASDYRRRSDIERIVGAASRKRSMFKRGVVILLDEVDGINPREDAGGIEALLSVIKTTENPIVMTANDPWKDFLRPLREVSLMVEFRPLTLTHIVAVLQRICEAERIECEREALRYIAERSEGDLRSAINDLQAVAEGYGRVTLTLAREIVRGREKSIDIWRTLNQVFYKPRQAWMARKAVSQSEKDYEELIAWINDNIPRKYGEPSDLFRAFDALARATVFLGRAKFGGNWELLSYVFDLMGPGVAYARMEGEVLKTRYSYPEKIRMMAQLRGVRETREKLAEVLAKRLLMSRRAVKTEVLPILHYIFRSSRDPTKPAMIALEYGLTEKMVELLAGQRKSEILKAMATVKKARLGEKPLEPQEAKARRRGEKASRDEGRKAGKRERKGVGLDFFLGEQ”, the protein production was “failed”.

For “MTSRSDAGVFHVRALLLGVLYVCGSLLFVTSMLSKTTTLTNVSSNTCPTVRGVDQIIVLLVDALRPDFVLPALSPHYLDGVECSTVSARGVDGNVNGDRRSTLTYMEENLKRVAHPSHGFFFLSDTPTITAQRIKAITTGTTPAFLEVGTNLNTDEVQIDNILLQLRRRSILLGDDTWLNLFPDHQGNASFWKHTHALPPYNVSDFDTNDATVIADLMPLLLSETAEQAPDDYARLIIGHLLAVDHVGHRHHASHPAMYKKLSDINEMLRNVTKRLREERQTSMRTLLVVFGDHGMTNSGDHGGDSEGERDSFMYAELFESSRDSVHAPVNSSDKFQRKNNLTEKRWEDNIDEDLSRLKACRDVAGVHPGKLSAVHQVDLTPTLALLLGVPIPFSNVGRVIPEMVALSNPDVNMSASEECNWKQLTSYFDEAGLYIKPEWKDSNLSLRRRIAQMSHFARSIRMEIRRDGAFIGSSLCMVTALSLLRNGDIQQVICGRSVLGIGTLFLLVLRLLAVFANSFIIKESVEVFCLLQLLLIAALFVAPTKGGGRHASFLIVILLVLLRVAVPLVSRERSHITHTAEATSHLEMWLAKQFPEFHYNSVGIILGAALFVFSAPTMPHRLMGIVLGTVAAVCYGQPLIHHIGPFVFFALTFFFRGMGPLRYTALVLWSSSLCNDNYVASASIAVSGVLLPVVLTATRHLPVVPQALMLHLYMWVSFFAQGNQCLLNTVDLNASFVGLPFNSVALGSVFVLSRLCNAFLFAPIAVMITYGTDRARGWRVCYLLLYITLAQSAVSSFNGYIQKSHLMFFPIFCPKFIFDFCIGMAACIGYALAALLA”, the protein production was “failed”.
